2 molecules from doi:10.1101/749432 (2019) can be followed below.

The chains are these.
B1: synthetic binder (cys2 variant of design 469) (designed binder)
chain: NNWEQQKKNIEDDLDRYKKRAEELRKEAEKARKEARKTEDPTEEAKKEWEKRCKELEERARKLEDEAKDRVNDLFDSNFFQVIYSGDNDEEEWKKEKDRAEKEIEEWFKRIKEKCEEIKKRLEQ
modifications: biotin on the BAP tag (BirA)
B2: endothelial protein C receptor (EPCR), residues 16 to 210, biotinylated on the BAP tag (receptor)
chain: FCSQDASDGLQRLHMLQISYFRDPYHVWYQGNASLGGHLTHVLEGPDTNTTIIQLQPLQEPESWARTQSGLQSYLLQFHGLVRLVHQERTLAFPLTIRCFLGCELPPEGSRAHVFFEVAVNGSSFVSFRPERALWQADTQVTSGVVTFTLQQLNAYNRTRYELREFLEDTCVQYVQKHISAENTKGSQTSRSYTS

Assay [1] deals with B2. The assay can be described thus: SPR. (SPR reads the build-up and loss of mass on a sensor chip optically.)
The target in assay [2] is HB3var03 CIDRα1.4 domain (E. coli, refolded) (Plasmodium falciparum). The assay can be described thus: SPR; wild type, data from ref. 8.

B1: the koff in assay [1] came out at 0.000131 s⁻¹.
In assay [2], B2 gave a Kd of 0.4 nM and a dissociation rate constant (koff) of 0.000197 s⁻¹.

Broadly, the koff is the first-order rate constant of dissociation. Lower therefore signals slow dissociation. For orientation: Kd means a measure of binding affinity in units of concentration. A low value points to higher affinity.
